Results: US20260263521A1, “ANTI-CD200R1 ANTIBODY AND USE THEREOF” (AIMED BIO INC., priority 2023, published 2026)
Substitutions are numbered along the chain they refer to.

B1: P001009: phage display anti-CD200R1 clone; VH SEQ ID NO: 79, VL SEQ ID NO: 94 (antibody, V domains shown)
VH: EVQLLESGGGLVQPGGSLRLSCAASGFTFSSYDMSWVRQAPGKGLEWVSWISHGGGSIYYADSVKGRFTISRDNSKNTLYLQMNSLRAEDTAVYYCARDAPAYSAPLFDYWGQGTLVTVSS
VL: QSVLTQPPSASGTPGQRVTISCSGSSSNIGNNAVNWYQQLPGTAPKLLIYYDSNRPSGVPDRFSGSKSGTSASLAISGLRSEDEADYYCAAWDDSLSGYVFGGGTKLTVL
B2: P001009v1: P001009 variant, LC S52 and LC S94 substituted with K and R; VH SEQ ID NO: 79 (antibody, V domains shown)
VH: B1 VH
VL: B1 VL with S53K, S95R

Columns and labels:
[1] = target: T1, CD200R1 on Jurkat-CD200R1 cells (Homo sapiens, UniProt Q8TD46); experiment: Cell binding assay (flow cytometry), Jurkat-CD200R1 cells; format: cell-based
T1 construct: host or cells: Jurkat
T1 sequence (Q8TD46 25-348): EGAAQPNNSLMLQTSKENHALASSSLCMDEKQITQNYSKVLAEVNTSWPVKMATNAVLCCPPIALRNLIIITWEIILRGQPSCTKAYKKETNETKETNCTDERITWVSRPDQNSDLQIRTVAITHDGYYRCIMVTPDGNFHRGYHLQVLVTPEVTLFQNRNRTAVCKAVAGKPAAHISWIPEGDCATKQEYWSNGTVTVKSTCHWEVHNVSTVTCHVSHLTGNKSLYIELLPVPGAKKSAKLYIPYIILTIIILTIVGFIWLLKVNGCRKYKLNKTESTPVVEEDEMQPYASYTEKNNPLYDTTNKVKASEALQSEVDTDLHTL
Description: (§1) The binding ability of the antibodies identified using unique multifaceted antibody discovery technology was identified in HH (CRL-2105) cells, which endogenously express CD200R1, and Jurkat-CD200R1 cells (Source: DiscoverX), which were generated by intranuclear injection of CD200R1 cDNA.
(§2) HH and Jurkat-CD200R1 cells were maintained in RPMI 1640 medium supplemented with 10% heat-inactivated FBS and 1% Penicillin/Streptomycin (P/S). The cells were washed by centrifugation at 130 g for 5 minutes. The cells were seeded onto 96-well round-bottom plates (SPL, #34296) at a density of 1×10^5 cells/well in Flow cytometry staining buffer (Invitrogen, #00-4222-26) or FACS buffer. The cells were treated with all 16 substances and the positive control LY3454738 (US 2020/0087395, I-4P, at Eli Lilly) a concentration of 500 nM in the IgG1 form. After incubation for 1 hour at 4° C., the cells were treated with Alexa-647 Goat anti-human IgG (H+L) cross-adsorbed secondary antibody (Invitrogen, #A21445) and incubated at 4° C. for an additional 30 minutes. […]
(§3) Cell-binding ability was determined in the same manner as in Example 12. For the six active substances primarily selected in Example 12, the isotype was changed to IgG4 or the LALAPG gene was mutated, and binding activity was determined in the two cell lines mentioned above.
(§4) Binding ability was determined in HH, an endogenous T cell line with high CD200R1 expression, and two additional overexpressing cell lines: U937-CD200R overexpressing cells, generated by intranuclear injection of human CD200R1 CDNA into the monocytic cell line U937 (CRL-1593.2) (Source: UMC Utrecht, the Netherlands) and Jurkat-CD200R overexpressing cells, were also cells engineered using a similar method.
(§5) All cell lines were maintained in RPMI 1640 medium supplemented with 10% heat-inactivated FBS and 1% penicillin/streptomycin (P/S) and cell binding was determined in the same manner as in Example 12. […]
(§6) Specific binding ability was determined using P001009 WT and antibody-optimized mutants, P001009v1, P001009v2, P001009v3, and P001009v4. […]

[2] = target: T2, CD200R1 on HH (CRL-2105) cells (Homo sapiens, UniProt Q8TD46); experiment: Cell binding assay (flow cytometry), HH cells; format: cell-based
T2 construct: HH (CRL-2105) cells, which endogenously express CD200R1; host or cells: HH (CRL-2105) cells
T2 sequence (Q8TD46 25-348): T1 sequence (Q8TD46 25-348)
Description: as §1, §2, §3, §4, §5, §6

| Molecule | cell binding ability, IgG4 or LALAPG mutants ([1]; Jurkat-CD200R1 cells) | cell binding ability, IgG4 or LALAPG mutants ([2]; HH cells) | binding ability to Jurkat-CD200R1 ([1]; serial dilution from 100 nM) | binding ability to HH cell line ([2]; serial dilution from 100 nM) |
| --- | --- | --- | --- | --- |
| B1 | highest efficacy | highest efficacy |  |  |
| B2 |  |  | highest binding ability | exhibited binding ability |
